Data set [1] deals with the molecule itself. Description: AUC.
Data set [2] deals with the molecule itself. The data set can be described thus: AUC. The source holds these as a separate data set.

Read-outs that look alike come from different tables or passages of the source.

B1: wild type human Prx I (peroxiredoxin I), reduced, non-glutathionylated (enzyme, UniProt Q06830 1-199, looked up)
chain: MSSGNAKIGHPAPNFKATAVMPDGQFKDISLSDYKGKYVVFFFYPLDFTFVCPTEIIAFSDRAEEFKKLNCQVIGASVDSHFCHLAWVNTPKKQGGLGPMNIPLVSDPKRTIAQDYGVLKADEGISFRGLFIIDDKGILRQITVNDLPVGRSVDETLRLVQAFQFTDKHGEVCPAGWKPGSDTIKPDVQKSKEYFSKQK
As usually defined, the stoichiometry N is a count of units in the complex or per binding partner. Take B1: the “stoichiometry N” value in the data set “AUC [1]” is 10.

B2: human Prx I (C52S/C173S) double mutant, reduced (enzyme, UniProt Q06830 1-199, looked up)
chain: MSSGNAKIGHPAPNFKATAVMPDGQFKDISLSDYKGKYVVFFFYPLDFTFVSPTEIIAFSDRAEEFKKLNCQVIGASVDSHFCHLAWVNTPKKQGGLGPMNIPLVSDPKRTIAQDYGVLKADEGISFRGLFIIDDKGILRQITVNDLPVGRSVDETLRLVQAFQFTDKHGEVSPAGWKPGSDTIKPDVQKSKEYFSKQK
Regarding B2, in “AUC [1]”, the “stoichiometry N” value came to 10.

B3: glutathionylated Prx I (C83S) mutant (enzyme, human, UniProt Q06830 1-199, looked up)
chain: MSSGNAKIGHPAPNFKATAVMPDGQFKDISLSDYKGKYVVFFFYPLDFTFVCPTEIIAFSDRAEEFKKLNCQVIGASVDSHFSHLAWVNTPKKQGGLGPMNIPLVSDPKRTIAQDYGVLKADEGISFRGLFIIDDKGILRQITVNDLPVGRSVDETLRLVQAFQFTDKHGEVCPAGWKPGSDTIKPDVQKSKEYFSKQK
modifications: glutathionylated by disulfide exchange with GSSG; sites not stated for this mutant
As for B3, in the data set “AUC [2]”, the “stoichiometry N” value was 2.
